Assay results as given in paper PMC11589570, “Critical assessment of LC3/GABARAP ligands used for degrader development and ligandability of LC3/GABARAP binding pockets” (Nature Communications, 2024).

Experiments:
Assay in all cases: FP
[1] = biological target: LC3A_(1-120) (human) (UniProt Q9H492)
[2] = biological target: GABARAPL2_(1-117) (human) (UniProt P60520)
[3] = biological target: LC3C_(1-126) (human) (UniProt Q9BXW4)
LC3C_(1-126) (human), sequence (Q9BXW4 1-126): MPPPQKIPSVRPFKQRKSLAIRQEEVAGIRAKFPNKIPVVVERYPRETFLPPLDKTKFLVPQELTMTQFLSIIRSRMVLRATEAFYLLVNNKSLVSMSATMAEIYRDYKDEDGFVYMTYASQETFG

GABARAPL2_(1-117) (human), sequence (P60520 whole entry): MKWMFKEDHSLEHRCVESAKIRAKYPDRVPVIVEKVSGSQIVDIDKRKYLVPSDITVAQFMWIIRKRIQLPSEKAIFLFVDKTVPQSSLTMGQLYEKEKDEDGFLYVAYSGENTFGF

Ki [1]: 179 µM | Ki [2]: 26.2 µM | Ki [3]: 84.3 µM
Substance: PCM1-LIR
